Assay results as given in patent US20200407424A1 (FRAUNHOFER GESELLSCHAFT ZUR F RDERUNG DER ANGEWANDTEN …, published 2020).
Like-named read-outs stand apart in the source and are kept apart here. Square brackets hold non-standard residues; d marks the D form. Ends that are not written are not given here. Cit = NC(=O)NCCC[C@H](N)C(=O)O

Tests used:
[1] = target: T1, recombinant MHC class II protein of the HLA DRB1 1001 genotype (human); assay: in vitro binding assay
T1 construct: construct not described

[2] = target: T2, recombinant MHC class II protein of the HLA DRB1 0405 genotype (human); assay: in vitro binding assay
T2 construct: construct not described

[3] = target: T3, recombinant MHC class II protein of the HLA DRB1 0404 genotype (human); assay: in vitro binding assay
T3 construct: construct not described

[4] = target: T4, recombinant MHC class II protein of the HLA DRB1 0401 genotype (human); assay: in vitro binding assay
T4 construct: construct not described; also called HLA-DR0401

[5] = target: T5, recombinant MHC class II protein of the HLA DRB1 0101 genotype (human); assay: in vitro binding assay
T5 construct: construct not described

[6] = target: T1, recombinant MHC class II protein of the …; assay: in vitro binding assay; remark: listed apart in the source
[7] = target: T6, recombinant MHC class II protein of the HLA DRB1 0408 genotype (human); assay: in vitro binding assay
T6 construct: construct not described

[8] = target: T5, recombinant MHC class II protein of the …; assay: in vitro binding assay; remark: listed apart in the source
[9] = target: T2, recombinant MHC class II protein of the …; assay: in vitro binding assay; remark: listed apart in the source
[10] = target: T3, recombinant MHC class II protein of the …; assay: in vitro binding assay; remark: listed apart in the source
[11] = target: T4, recombinant MHC class II protein of the …; assay: binds MHC in vitro
[12] = target: T6, recombinant MHC class II protein of the …; assay: in vitro binding assay; remark: listed apart in the source
[13] = target: T3, recombinant MHC class II protein of the …; assay: in vitro binding assay; remark: listed apart in the source
[14] = target: T5, recombinant MHC class II protein of the …; assay: in vitro binding assay; remark: listed apart in the source
[15] = target: T4, recombinant MHC class II protein of the …; assay: in vitro binding assay; remark: listed apart in the source
[16] = target: T4, recombinant MHC class II protein of the …; assay: in vitro binding assay; remark: listed apart in the source

B1: type II collagen peptide ref no 263 (peptide)
peptide: GDRGEAGAQGPMGPS
- binding result [1]: binds

B2: citrullinated type II collagen peptide ref no 332 (peptide)
peptide: [Cit]GPPGPQGA[Cit]GFPGT
- binding result [2]: binds
- binding result [3]: binds
- binding result [4]: binds

B3: type II collagen peptide ref no 242 (peptide)
peptide: GIVGLPGQRGERGFP
- binding result [5]: binds
- binding result [2]: binds
- binding result [3]: binds
- binding result [4]: binds

B4: a-enolase peptide ref no 66 (peptide)
peptide: KRIAKAVNEKSCNCL
- binding result [6]: no binding
- binding result [7]: binds
- binding result [8]: binds
- binding result [9]: binds
- binding result [10]: binds
- binding result [11]: binds

B5: citrullinated type II collagen peptide ref no 384 (peptide)
peptide: QGP[Cit]GLPGTPGTDGP
- binding result [1]: binds
- binding result [12]: binds

B6: corresponding non-citrullinated peptide of type II collagen peptide 386 (peptide)
peptide: PGLQGMPGERGAAGI
- binding result [13]: binds

B7: type II collagen peptide ref no 137 (peptide)
peptide: GEPGIAGFKGEQGPK
- binding result [5]: binds
- binding result [3]: binds
- binding result [4]: binds

B8: type II collagen peptide ref no 138 (peptide)
peptide: AGFKGEQGPKGEPGP
- binding result [5]: binds
- binding result [4]: binds

B9: corresponding non-citrullinated peptide of a-enolase peptide 287 (peptide)
peptide: MSILKIHAREIFDSR
- binding result [14]: binds
- binding result [13]: binds
- binding result [15]: no binding

B10: corresponding non-citrullinated peptide of a-enolase peptide 297 (peptide)
peptide: RYMGKGVSKAVEHIN
- binding result [14]: binds
- binding result [15]: no binding

B11: a-enolase peptide ref no 6 (peptide)
peptide: TSKGLFRAAVPSGAS
notes: also called corresponding non-citrinullated peptide of 291
- binding result [6]: no binding
- binding result [7]: no binding
- binding result [8]: binds
- binding result [9]: binds
- binding result [16]: no binding
- binding result [13]: binds

B12: type II collagen peptide ref no 268 (peptide)
peptide: PQGPRGDKGEAGEPG
- binding result [1]: binds

B13: citrullinated type II collagen peptide ref no 357 (peptide)
peptide: APGN[Cit]GFPGQDGLAG
- binding result [1]: binds

B14: corresponding non-citrullinated peptide of a-enolase peptide 313 (peptide)
peptide: KRIAKAVNEKSCNCL
- binding result [14]: binds
- binding result [15]: binds

B15: corresponding non-citrullinated peptide of type II collagen peptide 411 (peptide)
peptide: GIVGLPGQRGERGFP
- binding result [13]: binds
- binding result [15]: binds

B16: citrullinated a-enolase peptide ref no 291 (peptide)
peptide: TSKGLF[Cit]AAVPSGAS
- binding result [6]: binds
- binding result [7]: no binding
- binding result [8]: binds
- binding result [9]: binds
- binding result [13]: binds
- binding result [15]: binds

B17: citrullinated type II collagen peptide ref no 362 (peptide)
peptide: PKGANGDPG[Cit]PGEPG
- binding result [1]: binds
